Test [1] concerns the target His8-tagged PII protein, PII(WT) (Synechocystis sp. PCC 6803) (UniProt Q55247). Kind of test: BLI; Octet K2; His8-tagged PII variant loaded (10 ug/ml) on Ni-NTA sensor tips, free sites blocked with 72 ug/ml PII(ΔT); analyte GST-PirA 125 to 12,000 nM (or tag-free PirA or GST alone); with ADP (0.1 to 2 mM; 2 mM for variants and controls); 30°C; 50 mM Tris-HCl pH 7.4, 150 mM KCl, 2 mM MgCl2, 0.02% lauryldimethylamine oxide, 0.2 mg/ml BSA; KD from concentration versus maximum response. In general terms: Biolayer interferometry detects binding as a change in optical thickness at a sensor tip.

Test [2] has as its target PII(S49E), phosphomimetic variant, His8-tagged (Synechocystis sp. PCC 6803) (UniProt Q55247). The description is as above.
For test [3], the target named is His8-tagged PII protein, PII(WT) (Synechocystis sp. PCC 6803) (UniProt Q55247).

This passage reports Kd and NAGK activity (AGPR-coupled assay; 6 ug NAGK, 2.4 ug PII, 0.1 mM arginine, 1 mM ATP, 1 mM ADP) against PirA from 0 to 30 ug results from publication PMC8092223.

Regarding “GST-tagged PirA (Ssr0692, PII-interacting regulator of arginine synthesis) (natural protein)”, the Kd (usually the concentration at which binding is half-saturated) amounted to 2900 nM in test [1] and 2500 nM in test [2]. In addition, the NAGK activity (AGPR-coupled assay; 6 ug NAGK, 2.4 ug PII, 0.1 mM arginine, 1 mM ATP, 1 mM ADP) against PirA from 0 to 30 ug in test [3] was found to be 50%.
